{
  "source": "paper PMC9313131",
  "key": {"[1]": {"biological_target": "CDC37 (cell division cycle 37), wild type, full-length (human) (UniProt Q16543)", "sequence (Q16543 whole entry)": "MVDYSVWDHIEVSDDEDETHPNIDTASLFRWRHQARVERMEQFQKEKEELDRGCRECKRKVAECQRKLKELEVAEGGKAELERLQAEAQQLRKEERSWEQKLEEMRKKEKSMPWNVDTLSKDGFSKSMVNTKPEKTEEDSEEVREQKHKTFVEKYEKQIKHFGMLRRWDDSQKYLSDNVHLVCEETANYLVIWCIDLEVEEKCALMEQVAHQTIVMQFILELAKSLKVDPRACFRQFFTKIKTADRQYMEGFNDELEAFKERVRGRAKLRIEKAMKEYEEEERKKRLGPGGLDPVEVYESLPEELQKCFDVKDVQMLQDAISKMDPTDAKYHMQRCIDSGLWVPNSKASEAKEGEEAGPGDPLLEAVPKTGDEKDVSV", "experiment": "ITC; in most cases sBRAF construct at 350 μM injected into 30 μM CDC37 at 20 °C; 20 mM Tris pH 7.5, 1 mM EDTA, 200 mM NaCl; ITC200"}, "[2]": {"biological_target": "sBRAF L597R (human) (UniProt P15056)", "experiment": "SEC; Superdex 200 Increase 10/300 GL; 50 mM HEPES pH 7.5, 300 mM NaCl, 0.5 mM TCEP, 1 mM EDTA; relative molecular mass against gel-filtration standards"}},
  "data": [
    {"substance": "sBRAF, solubilized version of BRAF kinase domain (residues 423-723), V600 background (from UniProt P15056 423-723) (domain or fragment)", "values": [
      {"measurement": "Kd", "setting": "[1]", "value": 1000, "unit": "nM"}
    ]},
    {"substance": "sBRAF T599E-V600E-S602D (from UniProt P15056 423-723) (domain or fragment)", "values": [
      {"measurement": "Kd", "setting": "[1]", "value": 470, "unit": "nM"}
    ]},
    {"substance": "sBRAF F595A (from UniProt P15056 423-723) (domain or fragment)", "values": [
      {"measurement": "Kd", "setting": "[1]", "value": 500, "unit": "nM"}
    ]},
    {"substance": "sBRAF L597A (from UniProt P15056 423-723) (domain or fragment)", "values": [
      {"measurement": "Kd", "setting": "[1]", "value": 230, "unit": "nM"}
    ]},
    {"substance": "sBRAF L597R (from UniProt P15056 423-723) (domain or fragment)", "values": [
      {"measurement": "stoichiometry N", "setting": "[2]", "value": 2}
    ]},
    {"substance": "sBRAF F595V (from UniProt P15056 423-723) (domain or fragment)", "values": [
      {"measurement": "Kd", "setting": "[1]", "value": 1400, "unit": "nM"}
    ]},
    {"substance": "sBRAF D594V (from UniProt P15056 423-723) (domain or fragment)", "values": [
      {"measurement": "Kd", "setting": "[1]", "value": 1200, "unit": "nM"}
    ]},
    {"substance": "sBRAF L597R-V600E (from UniProt P15056 423-723) (domain or fragment)", "values": [
      {"measurement": "Kd", "setting": "[1]", "value": 340, "unit": "nM"}
    ]},
    {"substance": "sBRAF T599W-V600E (from UniProt P15056 423-723) (domain or fragment)", "values": [
      {"measurement": "Kd", "setting": "[1]", "value": 230, "unit": "nM"}
    ]}
  ]
}
